Results taken from paper PMC3771576.

Biological target: rYbx1 (wild type) (Danio rerio (zebrafish)) (UniProt B5DE31)
Experiment: EMSA
Conditions: RNA EMSA; binding buffer and temperature not given; extract lysis buffer 20 mM Tris pH 8.0, 100 mM NaCl, 0.1 mM EDTA, 1 mM 6-aminohexanoic acid, 1 mM PMSF, 25% …

rYbx1 (wild type) (Danio rerio (zebrafish)), sequence (B5DE31 whole entry): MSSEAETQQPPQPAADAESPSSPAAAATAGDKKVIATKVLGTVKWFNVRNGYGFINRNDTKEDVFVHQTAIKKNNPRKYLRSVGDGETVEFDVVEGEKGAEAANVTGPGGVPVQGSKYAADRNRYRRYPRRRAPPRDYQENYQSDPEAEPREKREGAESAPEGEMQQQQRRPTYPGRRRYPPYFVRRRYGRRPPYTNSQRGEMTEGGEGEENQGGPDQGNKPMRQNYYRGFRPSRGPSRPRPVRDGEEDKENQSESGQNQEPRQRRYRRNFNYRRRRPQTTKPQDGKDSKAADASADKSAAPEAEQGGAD

| Sequence | binding |
| --- | --- |
| GGGAGAACAAUUUUUCUUUUUUUAGGUGUGGAUUAAUGCAAAAUUAGGCUUCUUUUUAGAUGCAGAGAAUGUGCAUGUAGAUGCUGUUAAAGUAACUUUUUAUAAU [vg1.2 probe] | no binding |
| GGGAGAAGUGGAUGCAGAUGAACAUGACUUAAUUUUUAAAUGCACAAUUUGUUUAUUACAAUUUUUCUUUUUUUAGGUGUGGAUUAAUGCAAAAUUAGGCUUCUUUU [vg1.1 probe] | no binding |
| GGGAGACCGGCCGCACAACCAUUCACGCAAAAGACAACACACGCGUCGUGGAUGAAGUAAUCCUCUUUGCAAAUAUGUAAAGCUGUAUAUUUCUAAUGUAAAUA [wnt8a.1 probe] | no binding |
| GGGAGAGAUGCAGAGAAUGUGCAUGUAGAUGCUGUUAAAGUAACUUUUUAUAAUUCAUUGUAAUGUAAUAAUAAAAACUUUUACUAUGGGAUUCCUUUUUUUUC [vg1.3 probe] | no binding |
| GGGAGAUAUUUUAUGAGAUUUUAAGAUAUAAUUUUCUGUAUAUUUCUGCAAGCAAAAUGUAAAUUGACGCUCUAUAUAAGACACAUGGGCUUUCUCGUUCCCAC [wnt8a.2 probe] | no binding |
| GGGAGAUGUCAAUUGAAUUCAUUGAAGUUCUAUUUUGAAGUUCAUUAUUUGCACUUUUUCGUUCUCGACAUAAGAUCACAGAUUUUGUUGCUCUCAAAAAAUGU [wnt8a.3 probe] | no binding |
| GGGAGAUUGUAUUUUUUCAUGCACAGAUCACUUGACAGUAUGCAGUGUUUCACGAUGAGGUUUAAAUGUUGUGUUUUAUGGAACUUAUUUAAGGCAAAUAUUUU [wnt8a.4 probe] | no binding |
